The text below walks through data of patent US20250179180A1.

The assay has as its target human CD3 (human) (UniProt P07766).

Sequence of human CD3 (human) (P07766 23-207 limits assumed, chain 1 of 2): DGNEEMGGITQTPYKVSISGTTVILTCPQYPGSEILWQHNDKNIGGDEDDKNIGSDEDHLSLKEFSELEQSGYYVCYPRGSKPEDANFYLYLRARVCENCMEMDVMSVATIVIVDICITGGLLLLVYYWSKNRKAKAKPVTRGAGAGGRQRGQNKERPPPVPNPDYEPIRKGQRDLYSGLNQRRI
Sequence of human CD3 (human) (chain, as listed by the source limits assumed, chain 2 of 2): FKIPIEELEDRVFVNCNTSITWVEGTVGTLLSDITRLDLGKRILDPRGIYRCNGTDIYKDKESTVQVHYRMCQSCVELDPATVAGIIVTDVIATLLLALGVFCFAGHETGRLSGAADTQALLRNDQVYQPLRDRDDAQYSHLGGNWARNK

With TNB-384B (bispecific antibody), the Kd turned out to be 30 nM.
